From paper PMC10030117 (eLife, 2023)

Target: Authentic MERS spike, full-length unstabilized, on the cell surface (MERS-CoV, strain , UniProt K9N5Q8)
Test: flow cytometry on cells
Settings: one partner purified

Sequence of Authentic MERS spike, full-length unstabilized, on the cell surface (K9N5Q8 18-1353): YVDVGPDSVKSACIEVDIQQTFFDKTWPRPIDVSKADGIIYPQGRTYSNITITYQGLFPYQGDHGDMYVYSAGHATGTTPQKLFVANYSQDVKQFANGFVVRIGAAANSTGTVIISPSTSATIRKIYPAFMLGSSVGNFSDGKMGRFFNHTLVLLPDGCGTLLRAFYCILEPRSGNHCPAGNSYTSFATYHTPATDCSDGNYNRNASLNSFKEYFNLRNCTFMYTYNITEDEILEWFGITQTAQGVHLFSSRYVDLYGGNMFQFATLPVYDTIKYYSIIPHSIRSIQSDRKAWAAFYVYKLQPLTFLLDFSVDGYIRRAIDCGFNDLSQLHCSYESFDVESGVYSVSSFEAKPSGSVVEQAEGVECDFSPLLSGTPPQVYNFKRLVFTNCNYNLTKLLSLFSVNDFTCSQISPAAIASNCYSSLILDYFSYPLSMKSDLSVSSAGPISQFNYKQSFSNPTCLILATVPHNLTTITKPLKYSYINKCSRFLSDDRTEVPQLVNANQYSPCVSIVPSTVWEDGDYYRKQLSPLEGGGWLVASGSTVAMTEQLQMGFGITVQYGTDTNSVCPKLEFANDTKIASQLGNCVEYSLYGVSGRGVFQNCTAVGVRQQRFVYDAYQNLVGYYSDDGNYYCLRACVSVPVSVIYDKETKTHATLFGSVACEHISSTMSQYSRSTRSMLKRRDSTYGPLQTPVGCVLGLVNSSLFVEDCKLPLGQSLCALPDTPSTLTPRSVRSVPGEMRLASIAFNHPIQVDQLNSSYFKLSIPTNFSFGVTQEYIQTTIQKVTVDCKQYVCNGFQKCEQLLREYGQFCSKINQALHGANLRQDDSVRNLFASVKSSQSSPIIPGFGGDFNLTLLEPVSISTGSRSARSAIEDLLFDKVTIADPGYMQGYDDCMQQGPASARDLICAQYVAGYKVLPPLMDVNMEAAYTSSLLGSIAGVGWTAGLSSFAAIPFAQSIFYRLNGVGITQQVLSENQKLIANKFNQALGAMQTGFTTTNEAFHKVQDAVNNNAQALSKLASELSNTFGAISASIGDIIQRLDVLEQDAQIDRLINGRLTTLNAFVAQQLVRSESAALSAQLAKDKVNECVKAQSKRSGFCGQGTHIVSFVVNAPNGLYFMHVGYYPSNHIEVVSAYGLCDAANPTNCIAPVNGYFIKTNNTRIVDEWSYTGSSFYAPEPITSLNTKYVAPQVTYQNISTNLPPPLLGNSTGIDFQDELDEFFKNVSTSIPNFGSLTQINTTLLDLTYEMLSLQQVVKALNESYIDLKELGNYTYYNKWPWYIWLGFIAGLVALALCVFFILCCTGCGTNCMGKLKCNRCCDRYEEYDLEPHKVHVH

B1: Antibody RAY53, full-length human IgG1 (antibody, V domains shown)
VH: QVQLVQSGAVVLKPGASVKLSCKASGFNIKNTYIHWLKQAPGQRLEWIGRIGPAIGNTIYAPKFQGKATITTDTSASTAYLELSSLRSEDTAVYYCARYYGSSYYYLDYWGQGTTVTVSS
VL: DIVMTQSPLSVPVTPGEPVSISCRSSKSLLHSNGNTYLYWFLQKPGQSPQLLIARMSTLASGVPDRFSGSGSGTAFTLKISRVEAEDVGVYYCMQYLEYPLTFGAGTKLEIK
binding result: binds
